Results on one protein are retold here after article PMC12985673, “Weaker neuroligin 2–neurexin β1 interaction tethers membranes and recruits gephyrin at membrane junctions through clustering” (Science Advances, 2026).

This series deals with the molecule itself. Kind of series: cryo-EM structure; full-length NL2 alone; 20 mM Hepes-Na pH 7.5, 150 mM NaCl, 1 mM MgCl2, 0.5 mM CaCl2, 0.06% digitonin, brain polar lipid extract; only the ECD resolved.

B1: full-length neuroligin 2 (NL2), mouse, without the splice insert at site A (receptor, UniProt Q69ZK9 15-836, looked up)
chain: QRGGGGPGGGAPGGPGLGLGSLGEERFPVVNTAYGRVRGVRRELNNEILGPVVQFLGVPYATPPLGARRFQPPEAPASWPGVRNATTLPPACPQNLHGALPAIMLPVWFTDNLEAAATYVQNQSEDCLYLNLYVPTEDDIRDSGKKPVMLFLHGGSYMEGTGNMFDGSVLAAYGNVIVVTLNYRLGVLGFLSTGDQAAKGNYGLLDQIQALRWLSENIAHFGGDPERITIFGSGAGASCVNLLILSHHSEGLFQKAIAQSGTAISSWSVNYQPLKYTRLLAAKVGCDREDSTEAVECLRRKSSRELVDQDVQPARYHIAFGPVVDGDVVPDDPEILMQQGEFLNYDMLIGVNQGEGLKFVEDSAESEDGVSASAFDFTVSNFVDNLYGYPEGKDVLRETIKFMYTDWADRDNGEMRRKTLLALFTDHQWVAPAVATAKLHADYQSPVYFYTFYHHCQAEGRPEWADAAHGDELPYVFGVPMVGATDLFPCNFSKNDVMLSAVVMTYWTNFAKTGDPNQPVPQDTKFIHTKPNRFEEVVWSKFNSKEKQYLHIGLKPRVRDNYRANKVAFWLELVPHLHNLHTELFTTTTRLPPYATRWPPRTPGPGTSGTRRPPPPATLPPESDIDLGPRAYDRFPGDSRDYSTELSVTVAVGASLLFLNILAFAALYYKRDRRQELRCRRLSPPGGSGSGVPGGGPLLPTAGRELPPEEELVSLQLKRGGGVGADPAEALRPACPPDYTLALRRAPDDVPLLAPGALTLLPSGLGPPPPPPPPSLHPFGPFPPPPPTATSHNNTLPHPHSTTRV
modifications: N-glycans
notes: Neuroligin 2, mouse, amplified from pNICE-NL2(−); lacks the splice insert at site A (missing G153-T169 in UniProt Q69ZK9); its own signal peptide was replaced with that of NL1 followed by an HA tag; PreScission site before the C-terminal EGFP; S1A; also called NL2 WT; wild-type NL2; source: HEK293T, BacMam virus, purified (GFP-nanobody resin, eluted by PPX digestion, SEC); not shown: EGFP, …
The stoichiometry N is a count of units in the complex or per binding partner. On to B1, for which the “stoichiometry N” value was 2.
